# Data from the supplement of paper PMC9170038.
# Key:
# MS2 coat protein [1] = test: apparent KD of MS2 coat protein, switch ON state; designed switch direction (-1 OFF switch, 1 ON switch): -1; higher = weaker reporter binding; details: FMN input: 0 or 200 uM; Eterna round: R93 (includes R88 designs)
# In short: (§1)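 Illumina sequencing clusters served as templates for on-chip transcription of the designed RNA switches. SNAP-549-labelled MS2 coat protein was then titrated in twofold steps from 0.7 or 1.5 nM to 3 µM, allowing 0.8–1.5 h per step at first and 10–20 min per step later. The buffer held 100 mM Tris-HCl pH 7.5, 80 mM KCl and 4 mM MgCl2, without or with constant ligand. Apparent KD is the median per design of normalised cluster binding-curve fits.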
# MS2 coat protein [2] = test: apparent KD of MS2 coat protein, switch OFF state (with FMN for OFF switches, without FMN for ON switches); designed switch direction (-1 OFF switch, 1 ON switch): -1; higher = weaker reporter binding; details: FMN input: 0 or 200 uM; Eterna round: R93 (includes R88 designs)
# In short: as §1
Sequence,apparent KD of MS2 coat protein (MS2 coat protein [1]),apparent KD of MS2 coat protein (MS2 coat protein [2])
GAAAAGUGAGGAUAUACUUUGGGAAAAGAAAAGAUGAUGUUACAUGAGGAUCACCCAUGUAGAAGGCACAAAAA [Mat - Exclusion 2 - Mod - D155],25.2 nM,38.1 nM
GAAAAGUGAGGAUAUUCGGAUAGGAAAACGAAAACCUAUCCGAAGAAGGCACAUGAGGAUCACCCAUGUAAAAG [Mat - Exaclusion 4 - Eli mod - D36],41.2 nM,51.9 nM
GAAAGUGGAGGAUAUACAUGAGGAUCACCCAUGUGUAAAAAUAAAAACACAAAAGAAAGUAGAAGGCCACAAAG [Mat - Exclusion 3 - Mayanna mod - D116],22.9 nM,49.2 nM
GAGAGACAUGAGGAUCACCCAUGUGAGGAUAUCGGGAGGAGGAGGAGGAGGAGGAGGACGAGAAGGCACGGAAG [salish99-Ex1-06],21.6 nM,35.3 nM
GAGGCUGAAGGAUAUACAAGGGCCUCACCGCCAAGGCGGAAACAUGAGGAUCACCCAUGUAGAAGGUCAAUAAA [Usrisore],140 nM,103 nM
GCUGGCCUAGGAUAUACAUGAGGAUCACCCAUGUGAGAGAAAAAAGUGAGAAAGAAAAGUAGAAGGAGGUUAGG [salish99-ex3-115],50.2 nM,57.2 nM
GGAAAACAUGAGGAUCACCCAUGUGAGGAUAUUGAAACAAACAAAACAAACAAACAAACAAGAAGGCACAGGAA [Exclusion one redone],20.7 nM,20.1 nM
GGAGGGCAAGGAUAUACAUGAGGAUCACCCAUGUGAGAGAAAAAAGUGAGAAAGAAAAGUAGAAGGUGCUUUCG [salish99-ex3-130],38.8 nM,47.8 nM
GGAUGCGUAGGAUAUACAUGAGGAUCACCCAUGUGAGAGAAAAAAGUGAGAAAGAAAAGUAGAAGGACGUGUCG [salish99-ex3-90],34.9 nM,85.6 nM
GGAUGGGAAGGAUAUACAUGAGGAUCACCCAUGUGAGAGAAAAAAGUGAGAAAGAAAAGUAGAAGGUCUUGUCG [salish99-ex3-85],82.5 nM,99.1 nM
GGUUGCGUAGGAUAUACAUGAGGAUCACCCAUGUGAGAGAAAAAAGUGAGAAAGAAAAGUAGAAGGACGUGACG [salish99-ex3-125],29.7 nM,57.9 nM
GGUUGGCGAGGAUAUACAUGAGGAUCACCCAUGUGAGAGAAAAAAGUGAGAACGAAAAGUAGAAGGCGCUGACG [salish99-ex3-25],23.5 nM,1340 nM
GGUUGGCGAGGAUAUACAUGAGGAUCACCCAUGUGAGAGAAAAAAGUGAGGAGGAGCAGUAGAAGGCGCUGACG [salish99-ex3-19],59.3 nM,147 nM
GUCGUGUGAGGAUAUGGAAAGAAGAAGAAAAGGUAGAAAAACUAGAAGGCACAUGAGGAUCACCCAUGUAAGAA [JR_Exc004_Sub1709],24.1 nM,22.3 nM
GUGUACAGAGGAUAUACAUGGGCAUGGAAACAUGCAUCCUCACAUGAGGAUCACCCAUGUAGAAGGCUGUACAC [Ex2: 708],21.6 nM,20.9 nM
GUGUACAGAGGAUAUAUAUGAGCUAGGAAACUAGCAACUUCACAUGAGGAUCACCCAUGUAGAAGGCUGUACAC [Ex2: 720],14.1 nM,14.3 nM
UAGAACCUAGGAUAUACUUGGAAAAAUAAUGCAAAGAUAUAACAUGAGGAUCACCCAUGUAGAAGGAGGAGUAA [JR_Exc002_Sub020],48.5 nM,35.9 nM
UCUUGACAUGAGGAUCACCCAUGUCAGGAUAUAGUAGGACAAAUAAAUAAAAGUAAUACUAGAAGGGAUAUGGG [Amethyst 52],29.8 nM,32.6 nM
UGCAGGUGAGGAUAUGCGGGCGAGCUAACAUAAGCAUCGAAGCAGAAGGCACAUGAGGAUCACCCAUGUAGUCC [Ex4_Neo],21 nM,27.2 nM
UGCAGGUGAGGAUAUGCGGGCGAUUAAACAUAUAAAUGCAAGCAGAAGGCACAUGAGGAUCACCCAUGUAGUCC [Ex4Try2_Neo],30.8 nM,29.6 nM
UGCUAGUCAGGAUAUACGAACAUGUCAAAAGACGUGAAGGGACAUGAGGAUCACCCAUGUAGAAGGGACUAGCA [salish99-Ex2-18],37.5 nM,121 nM
UGUUGGCGAGGAUAUACAUGAGGAUCACCCAUGUGAGAGAAAAAAGUGAGAAAGAAAAGUAGAAGGCGCUGACU [salish99-ex3-08],42.7 nM,211 nM
UUAAAACAUGAGGAUCACCCAUGUGAGGAUAUGCAAUACUAAUAUUAAAAUAAUUAUAGCAGAAGGCACAUAGU [JR_EXc001_Sub802],28.4 nM,60.4 nM
